The source of these data is US20230131339A1, “EPI-X4 BASED PEPTIDES AND DERIVATIVES THEREOF” (Universitaet Ulm, priority 2020, published 2023).

Where a SMILES comes first, the peptide text is derived from it. Where no end group is shown, it is not given here. Side-chain parts run from the residue outwards. [ ]: non-standard residue; d: D form. The star is where a group is joined. Palmitoyl = CCCCCCCCCCCCCCCC(=O)*; Glu = glutamate linker

In data set [1] the test system is CXCL12-induced AKT signaling. The experiment in a line: ERK/AKT signaling assay in SupT1 cells: AKT phosphorylation. Format: cell-based. The protocol: (§1) Third, the activity of the claimed EPI-X4 derivatives was tested by the effect on CXCL12/CXCR4-mediated ERK (Extracellular-signal Regulated Kinases) and AKT (a serine/threonine-protein kinase) signaling (FIG. 3). In that assay CXCR4 expressing cells are stimulated with the CXCR4 chemokine-ligand CXCL12, which subsequently leads to phosphorylation of ERK and AKT. Preincubation of cells with CXCR4-antagonists blocks those pathways. […] Two or three independent experiments were carried out in triplicates for each peptide in each assay. The error bars refer to the standard deviation.
(§2) ERK/AKT signaling assay. CXCL12 induced ERK and AKT phosphorylation was determined in SupT1 cells. For this, 100,000 cells were seeded per well in a 96-V well plate in 100 μl medium supplemented with 1% FCS. Cells were incubated for 2 hours at 37° C. before 5 μl of compounds were added. After 15 min incubation at 37° C. cells were stimulated by adding 5 μl CXCL12 diluted in PBS to reach a final concentration of 100 ng/ml. Cells were further incubated for 2 min before the reaction was stopped by adding 20 μl of 10% PFA. Cells were fixed for 15 min at 4° C. before PFA was removed and cells permeabilized by adding 100 μl ice cold methanol. After 15 min at 4° C. the methanol was removed, cells were washed and 30 μl primary antibody was added (phospho-p44/42 MAPK (Erk1) (Tyr204)/(Erk2) (Tyr187) (D1H6G) mouse mAb #5726; phosphor-Akt (Ser473) (193H12) rabbit mAb #4058 Cell Signaling) for 1 hour at 4° C. After the antibody was removed and cells were washed secondary antibody was added for 30 min. Cells were washed afterwards and subsequently analyzed by flow cytometry.

Data set [2] relates to CXCL12-induced ERK signaling. The experiment in a line: ERK/AKT signaling assay in SupT1 cells: ERK phosphorylation. Format: cell-based. The protocol:
as §1, §2

A short description of data set [3]: Functional stability assay in human plasma. Particulars: human, plasma. The protocol:
Fourth, the stability of peptides in human plasma and whole human blood was tested (FIG. 4). The functional stability of EPI-X4 (SEQ ID NO.: 1) derivatives was screened using a CXCR4 antibody-based screening approach. Peptides were diluted in full human plasma or blood (>99%) and the functional activity was then measured after either 2 hours or 8 hours and compared to a sample that was not incubated in plasma or blood.
In this test, the peptides were incubated in human plasma for a certain time period.
Stability assay. Whole blood was collected from healthy donors in EDTA tubes and directly used or subsequently centrifuged for 15 min at 2,500×g to obtain plasma. Plasma from 6 donors was pooled and stored in aliquots at −80° C. Compounds were 200-fold diluted in human plasma or whole human blood to reach final concentrations of 20 μM. The t=0 sample was immediately taken and stored at −80° C. Plasma/compound or blood/compound mixture was then transferred to 37° C. and shook at 350 rpm. At given time points samples were taken and stored at −80° C.°. For measuring the functional activity of the plasma/peptide samples, the mixtures were thawed and diluted in ice cold PBS. 12G5-APC antibody competition was then performed as described before. For blood/peptide functional stability, samples were thawed and centrifuged at 14,000 rpm to remove cells and debris. The supernatant was then diluted in PBS and 12G5-antibody competition assay was performed. After the 2 hours incubation, the cells were washed and 50 μl of 1-step-Fix/Lyse solution (Thermo Fisher #00-5333-54) was added for 15 minutes at room temperature. Afterwards cells were washed again and analyzed for bound antibody.

The test system of data set [4] is CXCL12 induced migration of T-cells. The experiment in a line: Migration assay (transwell, Jurkat cells). Format: cell-based. The protocol:
For each peptide, three independent experiments were performed. The error bars refer to the standard deviation.
Migration assay. Migration assays were performed using 96-well transwell assay plates (Corning Incorporated, Kennebunk, Me., USA) with 5 μm polycarbonate filters. […] Next, 75 μL (0.5×10^5 cells) of Jurkat cells (in assay buffer), together with/without the compounds, were added into the upper chambers. After 4 h at 37° C. (5% CO2), 100 μL of the lower chambers were transferred to a fresh 96 V-well plate and analyzed with Cell-Titer-Glo® assay (Promega, Madison, Wis., USA). The percentage of migrated cells was calculated as described by Balabanian et al. (2005). In order to obtain the relative migration in %, the percentage of migrated cells were normalized to the CXCL12-only control.

The target of data set [5] is T1, CXC chemokine receptor type 4 (CXCR4) (human, UniProt P61073 1-352).
T1 construct: whole, on cells
The experiment in a line: 12G5-APC antibody competition on SupT1 cells, flow cytometry. The protocol: To the right of the diagrams, an assignment of the curves to the tested peptides is explained. […] Three independent experiments were carried out for each peptide in each assay. The error bars refer to the standard deviation.
Antibody competition assay. Competition of compounds with antibody binding was performed on SupT1 cells. For that cells were washed in PBS containing 1% FCS and 50,000 cells were then seeded per well in a 96 V-well plate. Buffer was removed and plates were precooled at 4° C. […] The antibody was used at a concentration closed to its determined Kd. 15 μl compounds were then added to the cells and 15 μl antibody immediately afterwards. Plates were incubated at 4° C. in the dark for 2 hours. Afterwards cells were washed twice with PBS containing 1% FCS and fixed with 2% PFA. Antibody binding was analyzed by flow cytometry (FACS CytoFLEX; Beckman Coulter®).

For data set [6], the target named is T2, CXC chemokine receptor type 4 (CXCR4) (human, UniProt P61073 1-352).
T2 chain: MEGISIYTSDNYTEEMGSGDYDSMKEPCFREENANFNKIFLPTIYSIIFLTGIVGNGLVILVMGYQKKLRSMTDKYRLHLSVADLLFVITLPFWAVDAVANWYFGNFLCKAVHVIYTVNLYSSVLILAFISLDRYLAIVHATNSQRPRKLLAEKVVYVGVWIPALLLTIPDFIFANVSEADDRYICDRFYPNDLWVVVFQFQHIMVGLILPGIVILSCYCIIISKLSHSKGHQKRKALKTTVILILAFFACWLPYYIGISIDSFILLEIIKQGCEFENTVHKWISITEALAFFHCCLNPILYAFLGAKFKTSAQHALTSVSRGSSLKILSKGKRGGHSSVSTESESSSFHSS
The experiment in a line: 12G5 antibody competition.

Data set [7] addresses T1, CXC chemokine receptor type 4 (CXCR4). The experiment in a line: cell-based or functional assay.
The target of data set [8] is T2, CXC chemokine receptor type 4 (CXCR4). The experiment in a line: competition.

With `CC[C@H](C)[C@H](N)C(=O)N[C@@H](CC(C)C)C(=O)N[C@@H](CCCNC(=N)N)C(=O)N[C@@H](Cc1c[nH]c2ccccc12)C(=O)N[C@@H](CO)C(=O)N[C@@H](CCCNC(=N)N)C(=O)N[C@@H](CCCCN)C(=O)N[C@@H](CCSC)C(=O)N1CCC[C@H]1C(=O)N[C@@H](CS)C(=O)N[C@@H](CC(C)C)C(=O)N[C@@H](CO)C(=O)O` [JM #18] (H-ILRWSRKMPCLS-OH; C-terminus assumed), the “reduction of CXCL12-induced AKT signaling” value in data set [1] (0.1 μM) was “about 40%”; in data set [1] (1 μM), around 70%. Moreover, the “reduction of CXCL12-induced ERK signaling” value in data set [2] (0.1 μM) is recorded as “about 40%”; in data set [2] (1 μM), around 70%.
As to `CC[C@H](C)[C@H](N)C(=O)N[C@@H](CC(C)C)C(=O)N[C@@H](CCCNC(=N)N)C(=O)N[C@@H](Cc1c[nH]c2ccccc12)C(=O)N[C@@H](CO)C(=O)N[C@@H](CCCNC(=N)N)C(=O)N[C@@H](CCCCN)C(=O)N[C@@H](CC(C)C)C(=O)N1CCC[C@H]1C(N)=O` [JM #114] (H-ILRWSRKLP-NH2), in data set [3], the “functional stability in human plasma (in words)” value is on record as “rapidly inactivated in plasma”. Moreover, in data set [4], the “inhibition of CXCL12 induced migration of T-cells (in words)” value was “even more effective than the full-length peptide”.
Consider `CCCCCCCCCCCCCCCC(=O)NCCCC[C@H](NC(=O)[C@H](CCCCN)NC(=O)[C@H](CO)NC(=O)[C@H](Cc1c[nH]c2ccccc12)NC(=O)[C@H](CCCNC(=N)N)NC(=O)[C@@H](NC(=O)[C@@H](N)[C@@H](C)CC)C(C)C)C(=O)N[C@H](C(=O)N1CCC[C@H]1C(=O)N[C@@H](CS)C(=O)N[C@H](C(=O)N[C@@H](CO)C(=O)O)C(C)C)C(C)C` [JM #169, IVRWSKK(Pal)VPCVS] (H-IVRWSKK(Palmitoyl)VPCVS-OH; C-terminus assumed), for which the “reduction of CXCL12-induced AKT signaling” value was 85% in data set [1] (0.1 μM) and “completely” in data set [1] (1 μM). Moreover, the “reduction of CXCL12-induced ERK signaling” value was “over 70%” in data set [2] (0.1 μM) and “almost completely blocked” in data set [2] (1 μM).
Take `CC[C@H](C)[C@H](N)C(=O)N[C@@H](CC(C)C)C(=O)N[C@@H](CCCNC(=N)N)C(=O)N[C@@H](Cc1c[nH]c2ccccc12)C(=O)N[C@@H](CO)C(=O)N[C@@H](CCCNC(=N)N)C(=O)N[C@@H](CCCCN)C(N)=O` [JM #118, ILRWSRK-NH2] (H-ILRWSRK-NH2): the “functional stability in human plasma (in words)” value in data set [3] was “rapidly inactivated in plasma”. For the same molecule, in data set [4], the “inhibition of CXCL12 induced migration of T-cells (in words)” value is listed as “even more effective than the full-length peptide”.

B1: JM#167 (peptide)
peptide: IVRWSKK(Palmitoyl)VP-NH2
modifications: N-terminus assumed
SMILES: CCCCCCCCCCCCCCCC(=O)NCCCC[C@H](NC(=O)[C@H](CCCCN)NC(=O)[C@H](CO)NC(=O)[C@H](Cc1c[nH]c2ccccc12)NC(=O)[C@H](CCCNC(=N)N)NC(=O)[C@@H](NC(=O)[C@@H](N)[C@@H](C)CC)C(C)C)C(=O)N[C@H](C(=O)N1CCC[C@H]1C(N)=O)C(C)C
Turning to B1, in data set [5], the “fold more effective binding than EPI-X4” value was above 2000 fold and the “fold more effective than WSC02” value was around 300 fold.

B2: JM#195 (peptide)
peptide: [dL]MRWSRKK([Glu-Palmitoyl])-NH2
With B2, the IC50 in data set [6] was 3 nM.

B3: JM#200 (peptide)
peptide: ILRWSRK(Ac)LPCVS
Consider B3, for which the “IC50, HIV inhibition assay” value in data set [7] lay within 50 to 150 nM. In data set [8], this molecule showed an IC50 of 213 nM.

B4: JM#197 (peptide)
peptide: [dM]LRWSRKK([Glu-Palmitoyl])-NH2
In the case of B4, the IC50 in data set [6] was determined as 5 nM.

B5: JM#192 (peptide)
peptide: ILRWSRK([Glu-Palmitoyl])-NH2
Molecule B5 yielded an IC50 in data set [8] of 4 nM.

B6: JM#178 (peptide)
peptide: [dL]MRWSRK(Palmitoyl)MP-NH2
modifications: N-terminus assumed
SMILES: CCCCCCCCCCCCCCCC(=O)NCCCC[C@H](NC(=O)[C@H](CCCNC(=N)N)NC(=O)[C@H](CO)NC(=O)[C@H](Cc1c[nH]c2ccccc12)NC(=O)[C@H](CCCNC(=N)N)NC(=O)[C@H](CCSC)NC(=O)[C@H](N)CC(C)C)C(=O)N[C@@H](CCSC)C(=O)N1CCC[C@H]1C(N)=O
In the case of B6, the “IC50, HIV inhibition assay” value in data set [7] is 5 to 10 nM. In data set [5], the “fold more effective binding than EPI-X4” value is above 2000 fold and the “fold more effective than WSC02” value is around 300 fold.

B7: JM#174 (peptide)
peptide: [dI]LRWSRKLP-NH2
In the case of B7, the “IC50, HIV inhibition assay” value in data set [7] is above 150 nM. In addition, in data set [6], the IC50 stood at 480 nM.

B8: JM#36 (peptide)
peptide: [dL]MRWSRKMPCVS
On to B8, for which, in data set [6], the IC50 was 305 nM.
